Laboratory results as given in paper PMC6764022 (ACS Nano, 2019).
Bridges are numbered along the chain shown (N, C = ends). Roman numbers before positions name the chains, in order. Where no end group is shown, it is not given here. [ ]: non-standard residue; d: D form. Lys(N3) = [N-]=[N+]=NCCCC[C@H](N)C(=O)O

Experiments:
[1] = CD spectra and thermal unfolding; type: physicochemical; details: 5 °C, 50 μM, neutral pH (PBS pH 7.4)
Procedure: Figure 1 Biophysical characterization of the coiled-coil heterodimer formed between charge-neutral peptides CC-Di-EK and CC-Di-KE. (a) CD spectra recorded at 5 °C and (b) thermal unfolding (filled symbols, solid line) and refolding (open symbols, dashed line) profiles, monitored through the CD signal at 222 nm, of the individual peptides CC-Di-EK (red, circles) and CC-Di-KE (blue, squares) and of an equimolar mixture of CC-Di-EK:KE (purple, triangles). The average of the spectra of the individual peptides is shown in black (no symbols). […] Representative data from a minimum of three replicates are shown. Conditions: each peptide 50 μM in PBS (pH 7.4), 1 mm path length quartz cuvette. […]
(§1) Exceptions were CC-Di-EK-Z and Z-CC-Di-KE, the masses of which were confirmed by infusing sample from an Advion Nanomate Triverser (Nanospray source) at 1.4 kV into a Waters Synapt G2S IMS Q -TOF mass spectrometer. Peptide purity was determined to be >95% using a JACSO HPLC system set up with an analytical reverse phase Phenomenex Kinete x C18 column (5  µM particle size; 100 Å pore size; 100 x 4.6 mm) running linear gradients of buffer B vs. buffer A.
(§2) Peptide Concentration determinations. Peptide concentrations were determined in H 2O by UV-vis absorption at 280 nm on a Nanodrop 2000 (Thermo Scientific) using the following extinction coefficients: […]

[2] = Sedimentation equilibrium analytical ultracentrifugation (AUC); type: physicochemical; details: PBS, 20 °C; for MWAUC (Table S3): 55 μM each, 44–60 krpm, single ideal species, 280 nm (235 nm for CC-Di-KE), performed once, 99% confidence limits in separate column; for Oligomeric state (Table S3) / oligomeric state by AUC, in words / Oligomeric state (Table S3), reduced / MWAUC (Table S3), reduced: 55 μM; for Oligomeric state (Table S3): single run; for Oligomeric state (Table S3), reduced / MWAUC (Table S3), reduced: 10 fold excess of TCEP; for MWAUC (Table S3), reduced: 280 nm (235 nm for the KE peptides)
[3] = test system: ssDNA tags; assay: CD test of interaction of peptides with ssDNA tags; type: binding; details: CD spectra (Figure S6a,b)
Description: Peptide modelling. Parametric models for all six combinations of CC-Di-EK and CC-Di-KE as hetero and homodimeric parallel and antiparallel coiled coils were generated using ISAMBARD (https://github.com/woolfson -group/isambard).1 These were optimized for BUDE Interaction Energy in ISAMBARD using a genetic algorithm which generated 30,000 models per combination over 3 0 generations with 1,000 models in each. To ensure that we generated useful models, we restricted geometric parameters to values consistent with coiled -coil dimers. For both the parallel and antiparallel […]
z shift = 0 ± 5 Å. Optimizations were repeated three times for each combination.
Peptide purification. […]
as §1, §2

[4] = biological target: T1, B1: DNA origami B decorated with one β-CC-Di-KE (azidonorleucine (Z) at the N-terminus, joined to oligonucleotide tag β, which is hybridised to a handle of DNA origami B); assay: counting of free and bound DNA origami nanostructures in electron micrographs (TEM); peptides displayed on DNA origamis A and B through oligonucleotide tags; gel-purified An and Bn mixed, total monomer concentrations 0.25-2.4 nM; background of random coincidences subtracted; Kd from the slope of a linear fit through the origin; additional systematic error of approximately 20%; details: both partners purified
T1 chain: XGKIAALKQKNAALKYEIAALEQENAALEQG

[5] = biological target: the molecule itself; assay: AUC; sedimentation equilibrium, 55 µM of each peptide in PBS pH 7.4, 20 °C, 44-60 krpm, fits to a single ideal species
[6] = biological target: T2, CC-Di-KE (N-terminal acetylation (methods, said of the peptides in general)); assay: circular dichroism thermal unfolding, concentration dependence of TM; Kd for heterodimerization estimated from the concentration dependence of the TM of free peptides in solution; details: both partners purified
T2 chain: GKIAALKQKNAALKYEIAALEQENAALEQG

[7] = biological target: the molecule itself; assay: AUC; sedimentation equilibrium of the disulfide-linked heterodimers, 55 µM in PBS, 20 °C, 24-39 krpm in 3 krpm steps (colour key of Figure S3 o, p), fits to a single ideal species
[8] = biological target: the molecule itself; assay: counting of free and bound DNA origami nanostructures in electron micrographs (TEM); peptides displayed on DNA origamis A and B through oligonucleotide tags; gel-purified An and Bn mixed, total monomer concentrations 0.25-2.4 nM; background of random coincidences subtracted; Kd from the slope of a linear fit through the origin; additional systematic error of approximately 20%
[9] = biological target: the molecule itself; assay: AUC; sedimentation equilibrium, 55 µM of each peptide in PBS, 20 °C, with TCEP reducing agent (10-fold excess; for the pair 5-fold relative to total peptide), fits to a single ideal species

Ac-G EIAALEQ ENAALEQ KIAALKW KNAALKQ G-NH2 (Ac-GEIAALEQENAALEQKIAALKWKNAALKQG-NH2) [CC-Di-EK, charge-neutral coiled-coil peptide, four heptads, asparagines at two a sites]
folding state by CD [1]: either largely or fully unfolded | MWAUC (Table S3) [2]: 3274 Da | Oligomeric state (Table S3) [2]: 1.00 x monomer | oligomeric state by AUC, in words [2]: monomers | interaction with ssDNA tags [3]: no interaction

Ac-G EIAALEQ ENAALEQ KIAALKW KNAALKQ GC-NH2 (Ac-GEIAALEQENAALEQKIAALKWKNAALKQGC-NH2) [CC-Di-EK-C, CC-Di-EK with C-terminal Cys]
Oligomeric state (Table S3), reduced [2]: 1.04 x monomer | MWAUC (Table S3), reduced [2]: 3474 Da

Ac-G EIAALEQ KNAALKW KIAALKQ G-NH2 (Ac-GEIAALEQKNAALKWKIAALKQG-NH2) [CC-Di-EN3, 3-heptad coiled-coil peptide]
MWAUC (Table S3) [2]: 2369 Da | Oligomeric state (Table S3) [2]: 0.95 x monomer

Ac-G KIAALKQ KNAALKY EIAALEQ ENAALEQ GC-NH2 (Ac-GKIAALKQKNAALKYEIAALEQENAALEQGC-NH2) [CC-Di-KE-C, CC-Di-KE with C-terminal Cys]
Oligomeric state (Table S3), reduced [2]: 0.92 x monomer | MWAUC (Table S3), reduced [2]: 3062 Da

Ac-G EIAALEQ ENAALEQ KIAALKW KNAALKQ GC-NH2 | Ac-G KIAALKQ KNAALKY EIAALEQ ENAALEQ GC-NH2 (disulfide) [CC-Di-EK-C | CC-Di-KE-C, obligate heterodimer linked by disulfide via both C-termini]
Oligomeric state (Table S3), disulfide-linked heterodimer ([2]; 24–39 krpm (Figure S3 o, p)): 1.00 x obligate dimer | MWAUC (Table S3), disulfide-linked heterodimer ([2]; 24–39 krpm (Figure S3 o, p), 280 nm): 6695 Da

Ac-CGG KIAALKQ KNAALKY EIAALEQ ENAALEQ G-NH2 (Ac-CGGKIAALKQKNAALKYEIAALEQENAALEQG-NH2) [C-CC-Di-KE, CC-Di-KE with N-terminal Cys]
Oligomeric state (Table S3), reduced [2]: 0.92 x monomer | MWAUC (Table S3), reduced [2]: 3126 Da

Ac-CGG EIAALEQ ENAALEQ KIAALKW KNAALKQ G-NH2 (Ac-CGGEIAALEQENAALEQKIAALKWKNAALKQG-NH2) [C-CC-Di-EK, N-terminally Cys-labelled CC-Di-EK]
Oligomeric state (Table S3), reduced [2]: 1.96 x monomer | MWAUC (Table S3), reduced [2]: 6683 Da | oligomeric state by AUC, in words [2]: exists as a dimer in solution even under reducing conditions

Ac-G KIAALKQ KNAALKY EIAALEQ ENAALEQ G-NH2 (Ac-GKIAALKQKNAALKYEIAALEQENAALEQG-NH2) [CC-Di-KE, charge-neutral coiled-coil peptide, partner of CC-Di-EK]
folding state by CD [1]: either largely or fully unfolded | MWAUC (Table S3) [2]: 3096 Da | Oligomeric state (Table S3) [2]: 0.96 x monomer | oligomeric state by AUC, in words [2]: monomers | interaction with ssDNA tags [3]: no interaction

Ac-G LEQ EIAALEQ KNAALKW KIAALKQ G-NH2 [CC-Di-EN3.5, 3.5-heptad coiled-coil peptide]
MWAUC (Table S3) [2]: 2982 Da | Oligomeric state (Table S3) [2]: 1.04 x monomer

Ac-G EIAALEQ EIAALEQ KNAALKW KIAALKQ G-NH2 (Ac-GEIAALEQEIAALEQKNAALKWKIAALKQG-NH2) [CC-Di-EN4, 4-heptad coiled-coil peptide withone asparagine]
MWAUC (Table S3) [2]: 6079 Da | Oligomeric state (Table S3) [2]: 1.87 x monomer

B1: A1: DNA origami A decorated with one CC-Di-EK-α (other)
chain: GEIAALEQENAALEQKIAALKWKNAALKQG[Lys(N3)]-NH2
modifications: also: tag α hybridised to handle of DNA origami A, one copy per origami
Kd [4]: 130 ± 20 nM

B2: CC-Di-EN4 (peptide)
peptide: Ac-GEIAALEQEIAALEQKNAALKWKIAALKQG-NH2
stoichiometry N [5]: 1.87 x monomer

B3: CC-Di-EK (peptide)
chain: Ac-GEIAALEQENAALEQKIAALKWKNAALKQG-NH2
Kd [6]: 102 ± 26 nM

B4: CC-Di-EK-C disulfide-linked to C-CC-Di-KE (opposite ends) (complex)
peptide 1: Ac-GEIAALEQENAALEQKIAALKWKNAALKQGC-NH2
peptide 2: Ac-CGGKIAALKQKNAALKYEIAALEQENAALEQG-NH2
modifications: disulfide I:31-II:1
stoichiometry N [7]: 2.6 x obligate dimer

B5: B3: DNA origami B decorated with three β-CC-Di-KE (other)
chain: [Lys(N3)]GKIAALKQKNAALKYEIAALEQENAALEQG-NH2
modifications: also: tag β hybridised to handle of DNA origami B, three copies per origami
Kd [8]: 20 ± 3 nM

B6: C-CC-Di-EK (peptide)
peptide: Ac-CGGEIAALEQENAALEQKIAALKWKNAALKQG-NH2
stoichiometry N [9]: 1.96 x monomer
